Publication PMC6791870, “Switch of the interactions between the ribosomal stalk and EF1A in the GTP- and GDP-bound conformations” (Scientific Reports, 2019)
Residue numbers refer to the chain shown, from its start. Primed or numbered codes have the meaning given here. Where no end group is shown, it is not given here. FITC′ = fluorescein isothiocyanate label

Tests used:
Test in all cases: fluorescence polarisation; FITC-labeled PhoP1C14 peptide (50 nM) mixed with 0-160 µM of the complex of each PhoEF1A mutant, GTP and PfuPelota; 20 mM HEPES-KOH pH 7.6, 10 mM MgCl2, 150 mM KCl, 0.1 mg/ml BSA; 25 °C; nonlinear regression, one site specific binding (GraphPad Prism 6); average of three replicates
Conditions in all cases: both partners purified
[1] = target: T1, PhoEF1A R132A•GTP•PfuPelota complex (Pyrococcus horikoshii | Pyrococcus …, UniProt O59153 1-428, R132A)
T1 construct: elongation factor aEF1A of Pyrococcus horikoshii (PhoEF1A); complex of the EF1A mutant, GTP and PfuPelota; also called R132(R140)A; P. horikoshii aEF1A-R132A
T1 sequence 1: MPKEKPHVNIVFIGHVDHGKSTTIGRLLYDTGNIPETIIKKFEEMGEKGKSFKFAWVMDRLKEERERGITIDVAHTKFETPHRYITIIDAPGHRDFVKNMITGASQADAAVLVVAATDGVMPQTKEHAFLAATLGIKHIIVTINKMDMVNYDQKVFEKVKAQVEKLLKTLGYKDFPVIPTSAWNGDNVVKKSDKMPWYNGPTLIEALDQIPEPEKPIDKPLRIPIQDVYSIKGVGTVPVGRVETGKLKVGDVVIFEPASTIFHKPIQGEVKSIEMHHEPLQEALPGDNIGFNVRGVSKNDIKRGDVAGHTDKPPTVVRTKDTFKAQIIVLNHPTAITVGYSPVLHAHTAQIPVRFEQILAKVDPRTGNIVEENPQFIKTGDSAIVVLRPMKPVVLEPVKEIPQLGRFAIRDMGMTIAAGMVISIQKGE
T1 sequence 2: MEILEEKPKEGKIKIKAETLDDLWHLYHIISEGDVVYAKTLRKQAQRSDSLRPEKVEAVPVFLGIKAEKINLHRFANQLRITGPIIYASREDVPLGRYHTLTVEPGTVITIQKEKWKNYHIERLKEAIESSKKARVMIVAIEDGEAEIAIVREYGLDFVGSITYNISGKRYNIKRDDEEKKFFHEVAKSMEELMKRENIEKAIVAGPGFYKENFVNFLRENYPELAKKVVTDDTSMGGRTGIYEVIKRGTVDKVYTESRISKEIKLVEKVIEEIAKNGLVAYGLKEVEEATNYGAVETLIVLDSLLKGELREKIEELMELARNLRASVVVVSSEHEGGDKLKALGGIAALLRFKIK

[2] = target: T2, PhoEF1A V398S•GTP•PfuPelota complex (Pyrococcus horikoshii | Pyrococcus …, UniProt O59153 1-428, V398S)
T2 construct: elongation factor aEF1A of Pyrococcus horikoshii (PhoEF1A); complex of the EF1A mutant, GTP and PfuPelota; also called V398(F401)S; P. horikoshii aEF1A-V398S
T2 sequence 1: T1 sequence 1 with A132R, V398S
T2 sequence 2: T1 sequence 2

[3] = target: T3, PhoEF1A M420S•GTP•PfuPelota complex (Pyrococcus horikoshii | Pyrococcus …, UniProt O59153 1-428, M420S)
T3 construct: elongation factor aEF1A of Pyrococcus horikoshii (PhoEF1A); complex of the EF1A mutant, GTP and PfuPelota; also called M420(I423)S; P. horikoshii aEF1A-M420S
T3 sequence 1: T1 sequence 1 with A132R, M420S
T3 sequence 2: T1 sequence 2

Kd [1]: 87.8 ± 12 µM
Kd [2]: 38.3 ± 2.8 µM
Kd [3]: 80.1 ± 8.7 µM
B1: FITC-labeled C-terminal 14-mer peptide of P. horikoshii aP1 (PhoP1C14) (peptide)
peptide: {FITC′}-SEEEALAGLSALFG
notes: also called FITC-labeled peptide of PhoP1C14; source: synthetic peptide (Hokkaido System Science Co., Ltd)
